Biological target: T1, UPK2 antigen on 293T cells (6600, Lenti-UPK2 antigen plasmid) (Homo sapiens (Human), UniProt O00526 85-184)
T1 construct: 293T cells transiently transfected with plasmid 6600 or infected with virus packaged from it; also called UPK2 target cells; 293T cells with UPK2 target
T1 sequence: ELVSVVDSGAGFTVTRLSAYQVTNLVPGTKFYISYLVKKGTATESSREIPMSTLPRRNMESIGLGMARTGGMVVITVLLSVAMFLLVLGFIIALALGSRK
Test: flow cytometry, histogram of 293T-6600 cells (293T transiently transfected with plasmid 6600, UPK2-noflag) stained with the antibody; goat-anti-human FITC secondary per paragraph 179

B1: S2B7 recombinant anti-UPK2 monoclonal antibody (murine-human chimeric) (antibody, V domains shown)
VH: EVQLQQSGAELMKPGTSVKMSCKAAGYTFTKYWIGWVKQRPGHGLEWIGDIYPGGGYTLFNEKFKGKATLTADTSSSTAYMQLSSLTSEDSAIYYCARGNYWGQGTTLTVSS
VL: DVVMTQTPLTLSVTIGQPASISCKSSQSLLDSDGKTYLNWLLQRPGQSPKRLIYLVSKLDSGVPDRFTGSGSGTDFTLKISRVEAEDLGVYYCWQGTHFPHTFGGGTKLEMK
percent of cells in the positive gate: 0.06%

B2: S3D10 recombinant anti-UPK2 monoclonal antibody (murine-human chimeric) (antibody, V domains shown)
VH: QVQLQQSGAELVRSGASVKLSCTDSGFNIKDYYMNWVKQRPEQGLEWIGWIDPENGVTQYDPKFQGKATVTADTFSNTAYLQLSSLTSEDTAVYYCNANYKYDWFGYWGQGTLVTVSA
VL: NIVMTQSPSSLSASLGERVSLTCRASQEISGYLSWLQQKPDGTIKRLIYAASTLDSGVPERFSGSRSGSDYSLTISSLESEDFADYYCLQYASYPWTFGGGTKLEMK
percent of cells in the positive gate: 0.07%

B3: S7F11 recombinant anti-UPK2 monoclonal antibody (murine-human chimeric) (antibody, V domains shown)
VH: EVQLKESGAELVRSGASVKLSCTASAFNIKDYYMNWMKQRPEQGLEWIGWIDPENGDTKYAPKFQGKATITADTSSSTAYLQLTSLTSEDSAVFYCNVNYKYDWFAYWGQGTLVTVSA
VL: DVVMTQSQKFMSTSVGDRVSVTCKASQNVGTNVAWYQQKPGQSPRALIYSASYRYSGVPDRFTGSGSGTDFTLTISNVQSEDLAEYFCQQYNTYPWTFGGGTKLEIK
percent of cells in the positive gate: 0.48%

B4: S7F9 recombinant anti-UPK2 monoclonal antibody (murine-human chimeric) (antibody, V domains shown)
VH: QVQLKQSGPGLVRPGASVTMSCKASGYTFTSNWMHWVKQRPGQGLDWIGMIDPSNSDTRLNQKFKDKATLNVDKSSNTAYMQLSSLTSDDSAVYYCMRGGGDYWGQGTTLTVSS
VL: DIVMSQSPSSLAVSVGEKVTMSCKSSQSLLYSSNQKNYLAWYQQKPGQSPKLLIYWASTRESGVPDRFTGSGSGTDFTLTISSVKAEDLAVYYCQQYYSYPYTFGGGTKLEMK
percent of cells in the positive gate: 0.19%

B5: S3A4 recombinant anti-UPK2 monoclonal antibody (murine-human chimeric) (antibody, V domains shown)
VH: EVKLKQSGAELVKPGASVKLSCKASGYTLTSYYIYWVKQRPGQGLEWIGGISPSNGNTYFTEKFKNMATLTVDKSSNTAYMQLSSLTSEDSAVYYCARNYDYDVGFAYWGQGTLVTVSS
VL: DVVMTQTPLSLPVSLGDQASISCRSSQSIVHSNGNTYLEWYLQKPGQSPKLLIYKVSNRFSGVPDRFSGSGSGTDFTLKISRVEAEDLGVYYCFQGSHVPFTFGSGTKLEIK
percent of cells in the positive gate: 27%

— patent publication US20250025506A1 (INNOVATIVE CELLULAR THERAPEUTICS, published 2025)
